B1: ADWA11 2.4 (F64V) Fab (Fab, V domains shown)
VH: EVQLVESGGGLVQPGGSLRLSCAASGFNIKDYYMNWVRQAPGKGLEWVGWIDPDQGNTIYEPKVQGRFTISADTSKNSAYLQMNSLRAEDTAVYYCARRLLMDYWGQGTLVTVSS
VL: DIQMTQSPSSLSASVGDRVTITCRSTKSLSHFNGNTYLFWYQQKPGKAPKRLIYYMSSLASGVPSRFSGSGSGTDFTLTISSLQPEDFATYYCQQSLEYPFTFGGGTKVEIK
B2: ADWA11 2.3 (F64V) Fab (Fab, V domains shown)
VH: EVQLVESGGGLVQPGGSLRLSCAASGFNIKDYYMNWVRQAPGKGLEWVGWIDPDQGNTIYEPKVQGRFTISADTSKNSAYLQMNSLRAEDTAVYYCARRLLMDYWGQGTLVTVSS
VL: DIQMTQSPSSLSASVGDRVTITCRSTKSLSHFNGNTYLFWYQQKPGKAPKRLIYYASNLASGVPSRFSGSGSGTDFTLTISSLQPEDFATYYCQQSLEYPFTFGGGTKVEIK
B3: ADWA11 2.3 Fab (Fab, V domains shown)
VH: EVQLVESGGGLVQPGGSLRLSCAASGFNIKDYYMNWVRQAPGKGLEWVGWIDPDQGNTIYEPKFQGRFTISADTSKNSAYLQMNSLRAEDTAVYYCARRLLMDYWGQGTLVTVSS
VL: DIQMTQSPSSLSASVGDRVTITCRSTKSLSHFNGNTYLFWYQQKPGKAPKRLIYYASNLASGVPSRFSGSGSGTDFTLTISSLQPEDFATYYCQQSLEYPFTFGGGTKVEIK
B4: ADWA11 2.1 Fab (Fab, V domains shown)
VH: EVQLVESGGGLVQPGGSLRLSCAASGFNIKDYYMNWVRQAPGKGLEWVGWIDPDQGNTIYEPKFQGRFTISADTSKNSAYLQMNSLRAEDTAVYYCARRLLMDYWGQGTLVTVSS
VL: DIQMTQSPSSLSASVGDRVTITCRSTKSLSHFNGNTYLFWYQQKPGKAPKRLIYYMSNLASGVPSRFSGSGSGTDFTLTISSLQPEDFATYYCQQSLEYPFTFGGGTKVEIK
B5: ADWA11 2.2 Fab (Fab, V domains shown)
VH: EVQLVESGGGLVQPGGSLRLSCAASGFNIKDYYMNWVRQAPGKGLEWVGWIDPDQGNTIYEPKFQGRFTISADTSKNSAYLQMNSLRAEDTAVYYCARRLLMDYWGQGTLVTVSS
VL: DIQMTQSPSSLSASVGDRVTITCRSTKSLSHFNGNTYLFWYQQKPGKAPKRLIYYMSNLASGVPSRFSGSGSGTDFTLTISSLQPEDFATYYCMQSYEYPFTFGGGTKVEIK
B6: ADWA11 2.1 (F64V) Fab (Fab, V domains shown)
VH: EVQLVESGGGLVQPGGSLRLSCAASGFNIKDYYMNWVRQAPGKGLEWVGWIDPDQGNTIYEPKVQGRFTISADTSKNSAYLQMNSLRAEDTAVYYCARRLLMDYWGQGTLVTVSS
VL: DIQMTQSPSSLSASVGDRVTITCRSTKSLSHFNGNTYLFWYQQKPGKAPKRLIYYMSNLASGVPSRFSGSGSGTDFTLTISSLQPEDFATYYCQQSLEYPFTFGGGTKVEIK
B7: ADWA11 VH05/VK01 Fab with N57Q in VH (Fab, V domains shown)
VH: EVQLVESGGGLVQPGGSLRLSCAASGFNIKDYYMNWVRQAPGKGLEWVGWIDPDNGQTIYDPKFQGRFTISADTSKNSAYLQMNSLRAEDTAVYYCARRLLMDYWGQGTLVTVSS
VL: DIQMTQSPSSLSASVGDRVTITCRSTKSLLHFNGNTYLFWYQQKPGKAPKRLIYYMSNLASGVPSRFSGSGSGTDFTLTISSLQPEDFATYYCMQSLEYPFTFGQGTKVEIK
B8: ADWA11 VH05/VK01 Fab with P62A in VH (Fab, V domains shown)
VH: EVQLVESGGGLVQPGGSLRLSCAASGFNIKDYYMNWVRQAPGKGLEWVGWIDPDNGNTIYDAKFQGRFTISADTSKNSAYLQMNSLRAEDTAVYYCARRLLMDYWGQGTLVTVSS
VL: DIQMTQSPSSLSASVGDRVTITCRSTKSLLHFNGNTYLFWYQQKPGKAPKRLIYYMSNLASGVPSRFSGSGSGTDFTLTISSLQPEDFATYYCMQSLEYPFTFGQGTKVEIK
B9: ADWA11 VH05/VK01 Fab with D61E in VH (Fab, V domains shown)
VH: EVQLVESGGGLVQPGGSLRLSCAASGFNIKDYYMNWVRQAPGKGLEWVGWIDPDNGNTIYEPKFQGRFTISADTSKNSAYLQMNSLRAEDTAVYYCARRLLMDYWGQGTLVTVSS
VL: DIQMTQSPSSLSASVGDRVTITCRSTKSLLHFNGNTYLFWYQQKPGKAPKRLIYYMSNLASGVPSRFSGSGSGTDFTLTISSLQPEDFATYYCMQSLEYPFTFGQGTKVEIK
B10: ADWA11 VH05/VK01 Fab with K30A in VH (Fab, V domains shown)
VH: EVQLVESGGGLVQPGGSLRLSCAASGFNIADYYMNWVRQAPGKGLEWVGWIDPDNGNTIYDPKFQGRFTISADTSKNSAYLQMNSLRAEDTAVYYCARRLLMDYWGQGTLVTVSS
VL: DIQMTQSPSSLSASVGDRVTITCRSTKSLLHFNGNTYLFWYQQKPGKAPKRLIYYMSNLASGVPSRFSGSGSGTDFTLTISSLQPEDFATYYCMQSLEYPFTFGQGTKVEIK
B11: ADWA11 VH05/VK01 Fab with K63A in VH (Fab, V domains shown)
VH: EVQLVESGGGLVQPGGSLRLSCAASGFNIKDYYMNWVRQAPGKGLEWVGWIDPDNGNTIYDPAFQGRFTISADTSKNSAYLQMNSLRAEDTAVYYCARRLLMDYWGQGTLVTVSS
VL: DIQMTQSPSSLSASVGDRVTITCRSTKSLLHFNGNTYLFWYQQKPGKAPKRLIYYMSNLASGVPSRFSGSGSGTDFTLTISSLQPEDFATYYCMQSLEYPFTFGQGTKVEIK
B12: ADWA11 VH03/VK02 Fab (Fab, V domains shown)
VH: EVQLVESGGGLVQPGGSLRLSCAASGFNIKDYYMNWVRQAPGKGLEWVGWIDPDNGNTIYDPKFQGRFTISADNAKNSAYLQMNSLRAEDTAVYYCARRLLMDYWGQGTLVTVSS
VL: DIQMTQSPSSLSASVGDRVTITCRSTKSLLHFNGNTYLFWFQQKPGKAPKRLIYYMSNLASGVPSRFSGSGSGTDFTLTISSLQPEDFATYYCMQSLEYPFTFGQGTKVEIK
B13: ADWA11 VH02/VK01 Fab (Fab, V domains shown)
VH: EVQLVESGGGLVQPGGSLRLSCAASGFNIKDYYMNWVRQAPGKGLEWVAWIDPDNGNTIYDPKFQGRFTISADNAKNSLYLQMNSLRAEDTAVYYCARRLLMDYWGQGTLVTVSS
VL: DIQMTQSPSSLSASVGDRVTITCRSTKSLLHFNGNTYLFWYQQKPGKAPKRLIYYMSNLASGVPSRFSGSGSGTDFTLTISSLQPEDFATYYCMQSLEYPFTFGQGTKVEIK
B14: ADWA11 VH01/VK01 Fab (Fab, V domains shown)
VH: EVQLVESGGGLVQPGGSLRLSCAASGFNIKDYYMNWVRQAPGKGLEWVAWIDPDNGNTIYDPKFQGRFTISRDNAKNSLYLQMNSLRAEDTAVYYCARRLLMDYWGQGTLVTVSS
VL: DIQMTQSPSSLSASVGDRVTITCRSTKSLLHFNGNTYLFWYQQKPGKAPKRLIYYMSNLASGVPSRFSGSGSGTDFTLTISSLQPEDFATYYCMQSLEYPFTFGQGTKVEIK
B15: ADWA11 VH03/VK01 Fab (Fab, V domains shown)
VH: EVQLVESGGGLVQPGGSLRLSCAASGFNIKDYYMNWVRQAPGKGLEWVGWIDPDNGNTIYDPKFQGRFTISADNAKNSAYLQMNSLRAEDTAVYYCARRLLMDYWGQGTLVTVSS
VL: DIQMTQSPSSLSASVGDRVTITCRSTKSLLHFNGNTYLFWYQQKPGKAPKRLIYYMSNLASGVPSRFSGSGSGTDFTLTISSLQPEDFATYYCMQSLEYPFTFGQGTKVEIK

Where “and” joins values, the source holds several entries; their conditions need not be identical. Identical values can stand only once.

The values that follow come from patent US20200079855A1 (Pfizer, published 2020).

The target of the first experiment is human αvβ8 integrin on U251 cells (human, UniProt P06756 31-1048). As to the kind of experiment: flow cytometry, Fab binding to fixed U251 cells (MFI APC-A); EC50 unit inferred, axis Log10 [Ab] (nM). (In flow cytometry, cells or beads pass a laser one at a time.)
Usually EC50 stands for the concentration giving half of the maximal effect. In turn, B1 returned an EC50 of 0.211 nM.
For B2, the EC50 came out at 0.28 nM.
With B3, the EC50 came to 0.452 nM.
Same read-out and setting: as for B4, the figure is 0.218 nM.
Take B5: the EC50 came to 0.225 nM.
B6 had an EC50 of 0.225 nM.

The target of a further experiment is recombinant human αvβ8 integrin (human) (UniProt P06756). In words: ELISA (DELFIA counts) on human αvβ8, Fab titration. In general terms: An ELISA detects its analyte on a solid surface through an enzyme-linked reagent.
Chain of recombinant human αvβ8 integrin (human) (P06756 31-992 limits assumed, form in doubt, chain 1 of 2): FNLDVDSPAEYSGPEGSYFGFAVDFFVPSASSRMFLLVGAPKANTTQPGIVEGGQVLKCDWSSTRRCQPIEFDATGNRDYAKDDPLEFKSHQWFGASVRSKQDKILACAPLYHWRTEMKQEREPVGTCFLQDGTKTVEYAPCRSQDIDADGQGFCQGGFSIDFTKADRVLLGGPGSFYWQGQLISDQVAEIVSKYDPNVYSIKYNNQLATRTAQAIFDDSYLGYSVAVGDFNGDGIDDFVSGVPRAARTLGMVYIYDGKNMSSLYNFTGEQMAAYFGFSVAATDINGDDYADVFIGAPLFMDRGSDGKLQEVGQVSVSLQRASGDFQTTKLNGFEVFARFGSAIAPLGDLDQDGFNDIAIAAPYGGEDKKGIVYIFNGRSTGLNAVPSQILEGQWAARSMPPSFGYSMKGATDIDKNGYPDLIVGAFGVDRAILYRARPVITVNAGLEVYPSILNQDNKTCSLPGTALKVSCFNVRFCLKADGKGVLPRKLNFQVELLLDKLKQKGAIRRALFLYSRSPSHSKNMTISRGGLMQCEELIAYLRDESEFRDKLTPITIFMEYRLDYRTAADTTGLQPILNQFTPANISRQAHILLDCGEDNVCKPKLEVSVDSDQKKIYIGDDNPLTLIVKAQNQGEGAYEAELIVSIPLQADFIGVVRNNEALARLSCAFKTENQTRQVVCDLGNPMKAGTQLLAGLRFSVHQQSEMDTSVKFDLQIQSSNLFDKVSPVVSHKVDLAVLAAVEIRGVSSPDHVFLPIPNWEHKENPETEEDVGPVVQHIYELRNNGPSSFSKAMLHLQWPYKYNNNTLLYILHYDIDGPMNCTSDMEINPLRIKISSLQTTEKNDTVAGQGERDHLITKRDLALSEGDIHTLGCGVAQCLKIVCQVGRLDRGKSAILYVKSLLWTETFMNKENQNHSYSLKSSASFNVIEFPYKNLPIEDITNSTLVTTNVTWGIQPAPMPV
Chain of recombinant human αvβ8 integrin (human) (chain, as listed by the source limits assumed, form in doubt, chain 2 of 2): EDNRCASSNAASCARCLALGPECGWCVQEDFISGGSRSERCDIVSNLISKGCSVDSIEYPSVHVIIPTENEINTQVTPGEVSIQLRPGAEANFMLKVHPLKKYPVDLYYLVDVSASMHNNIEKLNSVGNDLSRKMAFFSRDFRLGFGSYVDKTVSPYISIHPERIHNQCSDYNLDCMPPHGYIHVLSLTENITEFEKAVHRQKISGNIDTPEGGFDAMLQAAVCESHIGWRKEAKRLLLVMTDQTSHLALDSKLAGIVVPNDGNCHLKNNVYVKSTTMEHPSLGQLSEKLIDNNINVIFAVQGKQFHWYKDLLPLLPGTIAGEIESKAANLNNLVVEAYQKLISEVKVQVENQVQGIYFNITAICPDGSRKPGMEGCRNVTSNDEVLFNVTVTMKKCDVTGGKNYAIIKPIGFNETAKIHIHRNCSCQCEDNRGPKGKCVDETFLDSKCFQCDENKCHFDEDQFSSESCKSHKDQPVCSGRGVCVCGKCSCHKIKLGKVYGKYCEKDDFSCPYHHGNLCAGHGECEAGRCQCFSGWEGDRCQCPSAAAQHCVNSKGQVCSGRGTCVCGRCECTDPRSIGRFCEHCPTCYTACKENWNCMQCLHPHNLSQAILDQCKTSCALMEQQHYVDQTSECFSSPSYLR
By EC50 (read off the curve) is commonly meant the concentration giving half of the maximal effect. Turning to B7, the EC50 (read off the curve) was determined as 1 nM.
Consider B8, for which the EC50 (read off the curve) was found to be 1 nM.
For B9, the EC50 (read off the curve) stood at 1 nM.
Turning to B10, the EC50 (read off the curve) worked out at 1 nM.
B11: the EC50 (read off the curve) is 1 nM.

The target is the same in another experiment. As to the kind of experiment: SPR (Biacore), Fab affinity of Table 3. In general terms: SPR reads the build-up and loss of mass on a sensor chip optically.
By Kd is commonly meant the equilibrium constant for the complex coming apart. Take B12: the Kd was 0.373 nM and 0.37 nM.
As for B13, the Kd is 1.89 nM.
In the case of B14, the Kd came out at 6.86 nM.
Turning to B15, the Kd was 0.0735 nM and < 0.1 nM; the fold lower KD than the mouse hybridoma antibody ADWA-11 is greater than 5 fold.
